*1 amine or outer side, *2 acyl side, *3 side chain or, on linkers, in order; H or OH if unused. [ ]: non-standard residue; d: D form. Pqa = N-piperazin-1-yl-4(3H)-quinazolinone-3-acetic acid, O=C(Cn1cnc2ccc(N3CCN([*:1])CC3)cc2c1=O)[*:2]; Phe(3,4,5-F3) = N[C@@H](Cc1cc(F)c(F)c(F)c1)C(=O)O; Phe(F5) = N[C@@H](Cc1c(F)c(F)c(F)c(F)c1F)C(=O)O; Bip = N[C@@H](Cc1ccc(-c2ccccc2)cc1)C(=O)O; 1Nal = N[C@@H](Cc1cccc2ccccc12)C(=O)O; Nle = CCCC[C@H](N)C(=O)O
What was measured:
[1] = target: Y4R; test: cell-based or functional assay
[2] = target: Y1R; test: cell-based or functional assay
Chain of Y1R (P25929 whole entry): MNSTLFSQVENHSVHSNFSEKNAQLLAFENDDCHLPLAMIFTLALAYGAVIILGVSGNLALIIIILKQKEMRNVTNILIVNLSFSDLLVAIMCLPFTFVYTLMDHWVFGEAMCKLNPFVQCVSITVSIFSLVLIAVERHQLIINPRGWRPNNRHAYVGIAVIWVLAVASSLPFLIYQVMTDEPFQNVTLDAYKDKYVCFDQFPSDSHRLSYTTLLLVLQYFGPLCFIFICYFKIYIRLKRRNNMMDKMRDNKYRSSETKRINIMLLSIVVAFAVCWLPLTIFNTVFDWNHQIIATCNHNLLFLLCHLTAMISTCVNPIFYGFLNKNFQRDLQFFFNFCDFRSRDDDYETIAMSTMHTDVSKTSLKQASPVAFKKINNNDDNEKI

Row | Binder | Y4R EC50(nM) FLIPR [1] [nM] | Y1R EC50(nM) FLIPR [2] [nM]
1 | IKRHYLNLVTRQRY ((D)His at PYY position 26 (residue 2 of the second part); Pqa moiety between the two parts; C-terminal amide) [H-Ile-Lys-Pqa-Arg-(D)His-Tyr-Leu-Asn-Leu-Val-Thr-Arg-Gln-Arg-Tyr-NH2] | > 5000 | –
2 | IKRHYLNLVTRQRY (N-methyl His at PYY position 26 (residue 2 of the second part); Pqa moiety between the two parts; C-terminal amide) [H-Ile-Lys-Pqa-Arg-(NMe)His-Tyr-Leu-Asn-Leu-Val-Thr-Arg-Gln-Arg-Tyr-NH2] | > 5000 | –
3 | Ac-I[Nle][Pqa]RH[Phe(3,4,5-F3)]LNLVTRQRY-NH2 (SMILES CCCC[C@H](NC(=O)[C@@H](NC(C)=O)[C@@H](C)CC)C(=O)N1CCN(c2ccc3ncn(CC(=O)N[C@@H](CCCNC(=N)N)C(=O)N[C@@H](Cc4c[nH]cn4)C(=O)N[C@@H](Cc4cc(F)c(F)c(F)c4)C(=O)N[C@@H](CC(C)C)C(=O)N[C@@H](CC(N)=O)C(=O)N[C@@H](CC(C)C)C(=O)N[C@H](C(=O)N[C@H](C(=O)N[C@@H](CCCNC(=N)N)C(=O)N[C@@H](CCC(N)=O)C(=O)N[C@@H](CCCNC(=N)N)C(=O)N[C@@H](Cc4ccc(O)cc4)C(N)=O)[C@@H](C)O)C(C)C)c(=O)c3c2)CC1) [Ac-Ile-Nle-Pqa-Arg-His-(3,4,5trifluorPhe)-Leu-Asn-Leu-Val-Thr-Arg-Gln-Arg-Tyr-NH2] | > 5000 | –
4 | Ac-I[Nle][Pqa]RH[1Nal]LNLVTRQRY-NH2 (SMILES CCCC[C@H](NC(=O)[C@@H](NC(C)=O)[C@@H](C)CC)C(=O)N1CCN(c2ccc3ncn(CC(=O)N[C@@H](CCCNC(=N)N)C(=O)N[C@@H](Cc4c[nH]cn4)C(=O)N[C@@H](Cc4cccc5ccccc45)C(=O)N[C@@H](CC(C)C)C(=O)N[C@@H](CC(N)=O)C(=O)N[C@@H](CC(C)C)C(=O)N[C@H](C(=O)N[C@H](C(=O)N[C@@H](CCCNC(=N)N)C(=O)N[C@@H](CCC(N)=O)C(=O)N[C@@H](CCCNC(=N)N)C(=O)N[C@@H](Cc4ccc(O)cc4)C(N)=O)[C@@H](C)O)C(C)C)c(=O)c3c2)CC1) [Ac-Ile-Nle-Pqa-Arg-His-(1)Nal-Leu-Asn-Leu-Val-Thr-Arg-Gln-Arg-Tyr-NH2] | > 5000 | –
5 | Ac-I[Nle][Pqa]RH[Phe(F5)]LNLVTRQRY-NH2 (SMILES CCCC[C@H](NC(=O)[C@@H](NC(C)=O)[C@@H](C)CC)C(=O)N1CCN(c2ccc3ncn(CC(=O)N[C@@H](CCCNC(=N)N)C(=O)N[C@@H](Cc4c[nH]cn4)C(=O)N[C@@H](Cc4c(F)c(F)c(F)c(F)c4F)C(=O)N[C@@H](CC(C)C)C(=O)N[C@@H](CC(N)=O)C(=O)N[C@@H](CC(C)C)C(=O)N[C@H](C(=O)N[C@H](C(=O)N[C@@H](CCCNC(=N)N)C(=O)N[C@@H](CCC(N)=O)C(=O)N[C@@H](CCCNC(=N)N)C(=O)N[C@@H](Cc4ccc(O)cc4)C(N)=O)[C@@H](C)O)C(C)C)c(=O)c3c2)CC1) [Ac-Ile-Nle-Pqa-Arg-His-(2,3,4,5,6 Penta fluoroPhe)-Leu-Asn-Leu-Val-Thr-Arg-Gln-Arg-Tyr-NH2] | > 5000 | –
6 | IKRHYLNLVTRQRY (N-methyl Leu at PYY position 30 (residue 6 of the second part); Pqa moiety between the two parts; C-terminal amide) [H-Ile-Lys-Pqa-Arg-His-Tyr-Leu-Asn-(NMe)Leu-Val-Thr-Arg-Gln-Arg-Tyr-NH2] | > 5000 | > 5000
7 | IKRHYLNLVTRQRY (N-methyl Arg at PYY position 25 (residue 1 of the second part); Pqa moiety between the two parts; C-terminal amide) [H-Ile-Lys-Pqa-(NMe)Arg-His-Tyr-Leu-Asn-Leu-Val-Thr-Arg-Gln-Arg-Tyr-NH2] | > 5000 | –
8 | IKRHYLNLVTRQRY (N-methyl Tyr at PYY position 36 (residue 12 of the second part); Pqa moiety between the two parts; C-terminal amide) [H-Ile-Lys-Pqa-Arg-His-Tyr-Leu-Asn-Leu-Val-Thr-Arg-Gln-Arg-(NMe)Tyr-NH2] | > 5000 | > 5000
9 | IKRHYLNLVTRQRY ((D)Ile at PYY position 3 (residue 1 of the first part); Pqa moiety between the two parts; C-terminal amide) [H-(D) Ile-Lys-Pqa-Arg-His-Tyr-Leu-Asn-Leu-Val-Thr-Arg-Gln-Arg-Tyr-NH2] | > 5000 | > 5000
10 | IKRHYLNLVTRQRY (N-methyl Tyr at PYY position 27 (residue 3 of the second part); Pqa moiety between the two parts; C-terminal amide) [H-Ile-Lys-Pqa-Arg-His-(NMe)Tyr-Leu-Asn-Leu-Val-Thr-Arg-Gln-Arg-Tyr-NH2] | > 5000 | > 5000
11 | IKRHYLNLVTRQRY (N-terminal acetyl; Pqa moiety between the two parts; C-terminal amide) [Ac-Ile-Lys-Pqa-Arg-His-Tyr-Leu-Asn-Leu-Val-Thr-Arg-Gln-Arg-Tyr-NH2] | > 5000 | –
12 | IKRHYLNLVTRQRY (N-methyl Leu at PYY position 28 (residue 4 of the second part); Pqa moiety between the two parts; C-terminal amide) [H-Ile-Lys-Pqa-Arg-His-Tyr-(NMe)Leu-Asn-Leu-Val-Thr-Arg-Gln-Arg-Tyr-NH2] | > 5000 | > 5000
13 | IKRHYLNLVTRQRY (N-methyl Thr at PYY position 32 (residue 8 of the second part); Pqa moiety between the two parts; C-terminal amide) [H-Ile-Lys-Pqa-Arg-His-Tyr-Leu-Asn-Leu-Val-(NMe)Thr-Arg-Gln-Arg-Tyr-NH2] | > 5000 | > 5000
14 | Ac-I[Nle][Pqa]RH[Bip]LNLVTRQRY-NH2 (SMILES CCCC[C@H](NC(=O)[C@@H](NC(C)=O)[C@@H](C)CC)C(=O)N1CCN(c2ccc3ncn(CC(=O)N[C@@H](CCCNC(=N)N)C(=O)N[C@@H](Cc4c[nH]cn4)C(=O)N[C@@H](Cc4ccc(-c5ccccc5)cc4)C(=O)N[C@@H](CC(C)C)C(=O)N[C@@H](CC(N)=O)C(=O)N[C@@H](CC(C)C)C(=O)N[C@H](C(=O)N[C@H](C(=O)N[C@@H](CCCNC(=N)N)C(=O)N[C@@H](CCC(N)=O)C(=O)N[C@@H](CCCNC(=N)N)C(=O)N[C@@H](Cc4ccc(O)cc4)C(N)=O)[C@@H](C)O)C(C)C)c(=O)c3c2)CC1) [Ac-Ile-Nle-Pqa-Arg-His-Bip-Leu-Asn-Leu-Val-Thr-Arg-Gln-Arg-Tyr-NH2] | > 5000 | –
15 | H-IK[Pqa]AHYLNLVTRQRY-NH2 (SMILES CC[C@H](C)[C@H](N)C(=O)N[C@@H](CCCCN)C(=O)N1CCN(c2ccc3ncn(CC(=O)N[C@@H](C)C(=O)N[C@@H](Cc4c[nH]cn4)C(=O)N[C@@H](Cc4ccc(O)cc4)C(=O)N[C@@H](CC(C)C)C(=O)N[C@@H](CC(N)=O)C(=O)N[C@@H](CC(C)C)C(=O)N[C@H](C(=O)N[C@H](C(=O)N[C@@H](CCCNC(=N)N)C(=O)N[C@@H](CCC(N)=O)C(=O)N[C@@H](CCCNC(=N)N)C(=O)N[C@@H](Cc4ccc(O)cc4)C(N)=O)[C@@H](C)O)C(C)C)c(=O)c3c2)CC1) [H-Ile-Lys-Pqa-Ala-His-Tyr-Leu-Asn-Leu-Val-Thr-Arg-Gln-Arg-Tyr-NH2] | > 5000 | –

— US7410949 (Hoffmann-La Roche, dated 2008)
